Where no end group is shown, it is not given here. [ ]: non-standard residue; d: D form. αMePhe(2,6-F2) = C[C@](N)(Cc1c(F)cccc1F)C(=O)O; αMePhe(2-F) = C[C@](N)(Cc1ccccc1F)C(=O)O; αMeBip(OMe) = alpha-methylated Bip(OMe); hhPhe = N[C@@H](CCCc1ccccc1)C(=O)O; αMeP = C[C@@]1(C(=O)O)CCCN1; Aib = CC(C)(N)C(=O)O
target: human glucagon receptor (human, UniProt P47871 26-477); test: cell-based or functional assay
Sequence (P47871 26-477): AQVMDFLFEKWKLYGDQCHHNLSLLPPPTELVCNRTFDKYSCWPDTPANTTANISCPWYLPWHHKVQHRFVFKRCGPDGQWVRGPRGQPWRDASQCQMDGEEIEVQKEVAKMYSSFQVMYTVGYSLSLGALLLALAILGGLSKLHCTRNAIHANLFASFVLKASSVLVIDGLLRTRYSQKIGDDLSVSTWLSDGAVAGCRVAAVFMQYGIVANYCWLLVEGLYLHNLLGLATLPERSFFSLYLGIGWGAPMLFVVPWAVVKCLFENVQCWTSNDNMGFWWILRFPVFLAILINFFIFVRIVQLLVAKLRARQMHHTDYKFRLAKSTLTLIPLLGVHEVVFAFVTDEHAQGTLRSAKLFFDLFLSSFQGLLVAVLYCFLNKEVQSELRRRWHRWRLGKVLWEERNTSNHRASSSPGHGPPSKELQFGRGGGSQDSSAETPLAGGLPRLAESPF

| Binder | cAMP production (pmol/ml/µg prt) with saturated glucagon peptide, at 1 nM | cAMP production (pmol/ml/µg prt) with saturated glucagon peptide, at 10 nM | cAMP production (pmol/ml/µg prt) with saturated glucagon peptide, at 100 nM | cAMP production (pmol/ml/µg prt) with saturated glucagon peptide, at 1 µM | cAMP production (pmol/ml/µg prt) with saturated glucagon peptide, at 10 µM |
| --- | --- | --- | --- | --- | --- |
| VVH[Aib]EGT[αMePhe(2,6-F2)]TSD[αMeBip(OMe)][hhPhe]-NH2 [Seq. ID. No. 227] | 19 pmol/ml/µg prt | 17 pmol/ml/µg prt | 15 pmol/ml/µg prt | 14 pmol/ml/µg prt | 12 pmol/ml/µg prt |
| VVH[Aib]EGTFTSD[αMeBip(OMe)][hhPhe] (not fully specified (C-terminus); printed as VVH-Aib-EGTFTSD-(αMe-Bip(OMe))-(APPA)) [Seq. ID. No. 211] | 6 pmol/ml/µg prt | 5 pmol/ml/µg prt | 2 pmol/ml/µg prt | 0 pmol/ml/µg prt | 0 pmol/ml/µg prt |
| VVH[αMeP]QGT[αMePhe(2-F)]TSD[αMeBip(OMe)][hhPhe]-NH2 [Seq. ID. No. 216] | 0 pmol/ml/µg prt | 0 pmol/ml/µg prt | 0 pmol/ml/µg prt | 0 pmol/ml/µg prt | 0 pmol/ml/µg prt |
| VVHSEGT[αMePhe(2-F)]TSD[αMeBip(OMe)][hhPhe]-NH2 [Seq. ID. No. 217] | 5 pmol/ml/µg prt | 2 pmol/ml/µg prt | 0 pmol/ml/µg prt | 0 pmol/ml/µg prt | 0 pmol/ml/µg prt |
| VVHSEGTFTSD[αMeBip(OMe)][hhPhe] (not fully specified (C-terminus); printed as VVHSEGTFTSD-(αMe-Bip(OMe))-(APPA)) [Seq. ID. No. 209] | 0 pmol/ml/µg prt | 0 pmol/ml/µg prt | 0 pmol/ml/µg prt | 0 pmol/ml/µg prt | 0 pmol/ml/µg prt |

Source: US20120264685A1 (priority 2009, published 2012)
